The source of these data is US20130172235A1, “ORAL TREATMENT OF INFLAMMATORY BOWEL DISEASE” (Novozymes A/S, priority 2011, published 2013).

The subject of this series is Dextran Sodium Sulphate (DSS)-induced colitis. Briefly: 10-Day Dextran Sodium Sulphate (DSS)-induced colitis model in the mouse. The class given is in vivo, Male C57BL/6 mice. On the set-up: key to Disease Activity Index (DAI): clinical DAI score, daily maximum 12. The conditions noted are these: for Disease Activity Index (DAI): mean ± SEM, n=10; for additional DAI score without the change in body weight (only stool consistency and rectal bleeding): oral, 10-day treatment; for additional DAI score without the change in body weight (only stool consistency and rectal bleeding) / inhibition of the disease activity index (DAI): vs. vehicle. From the text:
10-Day Dextran Sodium Sulphate (DSS)-Induced Colitis Model in the Mouse
The aim of the following study was to determine the anti-inflammatory activity of human beta defensin 2 in an acute (10-days) model of inflammatory bowel disease (colitis) induced by oral dextran sodium sulphate (DSS) administration in the mouse.
Study design: animals were divided into 5 experimental groups. Each group consisted of 10 males: Group A: Treated with Control vehicle (PBS) p.o. twice daily. Group B: Treated with methylprednisolone (1 mg/kg p.o. twice daily). Group C: Treated with hBD2 (0.05 mg/kg p.o. twice daily). Group D: Treated with hBD2 (0.5 mg/kg p.o. […]). Group E: Treated with hBD2 (5 mg/kg p.o. […]). Animal allocation to all experimental groups was done in a randomized manner. A maximum of 5 mice were housed in each cage (as per Directive 86/609/EEC). All animals were weighed on their arrival at the laboratory and prior to the administration of the test items.
The control vehicle and hBD2 were administered orally with the use of a sterile cannula in a dosing volume of 10 ml/kg body weith. The animals of all groups recieved 2 doses daily (at 9.00 h and 17.00 h) of the corresponding test item (test, reference or vehicle) for 10 consecutive days (experimental days 1-10).
Colitis was induced in mice by supplementing their drinking water with DSS 2% for 7 days. On Day 1 all mice were weighed and marked according to their experimental groups. The drinking bottle of each cage was filled with the DSS solution, making sure all bottle lids were mounted properly and that none were congested. On Day 3 any remaining solution in the bottles was emptied and refilled with fresh DSS solution. This procedure was repeated again on Day 5. On Day 8 any remaining solution was discarded and replaced with autoclaved water. Animals were sacrificed 2 days later on Day 10.
Daily clinical assessment of DSS-treated animals was carried out, with the calculation of a validated clinical Disease Activity Index (DAI) ranging from 0 to 4 according to the following parameters: stool consistency, presence or absence of rectal bleeding and weight loss:
Bodyweight loss was calculated as the percent difference between the original bodyweight (Day 1) and the actual bodyweight on each experimental day (2-10). The appearance of diarrhoea is defined as mucus/faecal material adherent to anal fur. Rectal bleeding is defined as diarrhoea containing visible blood/mucus or gross rectal bleeding. The maximum score of the DAI each day is 12.
On day 10, two hours after the last administration of control vehicle, hBD2 or prednisolone, the animals were killed by an overdose of anaesthetic. Their colons were removed and their length and weight measured after exclusion of the caecum. Two sections (proximal and distal) of colon were taken from each animal and preserved in neutral buffered formalin for subsequent histological analysis (haematoxylin and eosin staining) according to the following scoring system:
Description Score: No changes observed (0). Minimal scattered mucosal inflammatory cell infiltrates, with or without minimal epithelial hyperplasia (1). Mild scattered to diffuse inflammatory cell infiltrates, sometimes extending into the submucosa and associated with erosions, with minimal to mild epithelial hyperplasia and minimal to mild mucin depletion from goblet cells (2). Mild to moderate inflammatory cell infiltrates that were sometimes transmural, often associated with ulceration, with moderate epithelial hyperplasia and mucin depletion (3). Marked inflammatory cell infiltrates that were often transmural and associated with ulceration, with marked epithelial hyperplasia and mucin depletion (4). Marked transmural inflammation with severe ulceration and loss of intestinal glands (5). […]

Where [1] appears, read: prednisolone 1 mg/kg p.o. twice daily (Group B), day 10.

Ends that are not written are not given here.

Regarding `C[C@H]1C[C@@H]2[C@H]([C@@H](O)C[C@@]3(C)[C@H]2CC[C@]3(O)C(=O)COC(=O)CCC(=O)O)[C@@]2(C)C=CC(=O)C=C12` [Methylprednisolone 21-hemisuccinate, reference compound], the “additional DAI score without the change in body weight (only stool consistency and rectal bleeding)” value is “very significant anti-inflammatory activity”. Further, the “Disease Activity Index (DAI)” value (Prednisolone 1 mg/kg p.o. twice daily, Day 6 as printed, P < 0.01 vs. vehicle) is 7 ± 0.33. In addition, under setting [1], the “histological injury induced by DSS in the distal colon” value was “significantly reduced” and the “histological injury induced by DSS in the proximal colon” value is recorded as “significantly reduced”. For the same molecule, the body weight result (prednisolone 1 mg/kg p.o. twice daily (group B), from day 2 until the end of the study) is on record as “significant decrease”. Also, the “inhibition of the disease activity index (DAI)” value (reference item prednisolone 1 mg/kg p.o. twice daily) is given as “significant inhibition”.

For the molecule “Human beta defensin 2 (GIGDPVTCLKSGAICHPVFCPRRYKQIGTCGLPGTKCCKKP; ends and bridges not checked; cysteine pairing not given here; listed as Homo sapiens) [hBD2, human beta defensin 2 (hBD2]”, the “additional DAI score without the change in body weight (only stool consistency and rectal bleeding)” value is “very significant anti-inflammatory activity”. Further, the “Disease Activity Index (DAI)” value (hBD2 0.05 mg/kg p.o., Day 6, max score 12, P < 0.01 vs. vehicle) was 1.2 ± 0.59. For the same molecule, where the note is “hBD2 0.05 mg/kg p.o., Day 7, P < 0.05 vs. vehicle”, the “Disease Activity Index (DAI)” value is on record as 1.9 ± 0.66. Moreover, the “Disease Activity Index (DAI)” value (hBD2 0.05 mg/kg p.o., Day 8, P < 0.001 vs. vehicle) is reported as 4.5 ± 0.86. Further, where the note is “hBD2 0.05 mg/kg p.o., Day 9, P < 0.001 vs. vehicle”, the “Disease Activity Index (DAI)” value stood at 5.6 ± 0.54. For the same molecule, the “Disease Activity Index (DAI)” value (hBD2 0.05 mg/kg p.o., Day 10, P < 0.05 vs. vehicle) is recorded as 8 ± 0.73. Besides, the “Disease Activity Index (DAI)” value (hBD2 0.5 mg/kg p.o., Day 6, P < 0.05 vs. vehicle) amounted to 1.7 ± 0.67. The “Disease Activity Index (DAI)” value (hBD2 0.5 mg/kg p.o., Day 9, P < 0.05 vs. vehicle) is listed as 7.1 ± 0.61. In addition, the “Disease Activity Index (DAI)” value (hBD2 0.5 mg/kg p.o., Day 10, P < 0.01 vs. vehicle) is on record as 7.3 ± 0.7. Further, the “Disease Activity Index (DAI)” value (hBD2 5 mg/kg p.o., Day 3, P < 0.05 vs. vehicle) was 0.5 ± 0.27. In addition, under “hBD2 5 mg/kg p.o., Day 4, P < 0.05 vs. vehicle”, the “Disease Activity Index (DAI)” value worked out at 0.6 ± 0.27. Also, the “Disease Activity Index (DAI)” value (hBD2 5 mg/kg p.o., Day 5, P < 0.05 vs. vehicle) was 1.8 ± 0.76. Further, the “Disease Activity Index (DAI)” value (hBD2 5 mg/kg p.o., Day 6, P < 0.05 vs. vehicle) is 1.4 ± 0.6. Moreover, the “Disease Activity Index (DAI)” value (hBD2 5 mg/kg p.o., Day 7, P < 0.05 vs. vehicle) came to 2.1 ± 0.96. The “Disease Activity Index (DAI)” value (hBD2 5 mg/kg p.o., Day 8, P < 0.01 vs. vehicle) is reported as 5.4 ± 0.87. In addition, the “Disease Activity Index (DAI)” value (hBD2 5 mg/kg p.o., Day 9, P < 0.001 vs. vehicle) worked out at 5.2 ± 0.76. Besides, the “Disease Activity Index (DAI)” value (hBD2 5 mg/kg p.o., Day 10, P < 0.001 vs. vehicle) was 5.6 ± 0.48. In addition, the “inhibition of the disease activity index (DAI)” value (hBD2 at three dose levels (0.05, 0.5, 5 mg/kg) via the oral route) was “significant inhibition”. Besides, the “histological damage in the proximal colon” value (hBD2 twice daily, at 3 dose levels, p.o., day 10) was “significant reduction”. The “histological damage in the distal colon” value (hBD2 twice daily, at the intermediate and high dose levels, p.o., day 10) is given as “significant reduction”. Further, the “body weight compared to the control group” value (high dose of the test item (5 mg/kg p.o.), day 10, P<0.05) is on record as “significant increase”.
